# Reference: article PMC8324772
# How the values were obtained:
# [1] = molecular target: Klebsiella quasipneumoniae Qmp M1-977 TolC (KqTolC), recombinant, C-terminal His6 (Klebsiella quasipneumoniae); test: ITC + other: stopped-flow fluorescence; koff not measured (too slow): estimated from the Kd by ITC and the kon by stopped-flow, assuming Kd = koff/kon
# [2] = molecular target: Klebsiella quasipneumoniae Qmp M1-977 TolC (KqTolC), recombinant, C-terminal His6 (Klebsiella quasipneumoniae); test: ITC; KlebC constructs in the syringe (76-89 µM), TolC trimer in the cell (5-7.6 µM); 25 mM Tris-HCl pH 7.5, 1% (w/v) β-OG; no feedback mode, 750 s between injections; single set of identical sites
# [3] = molecular target: Klebsiella quasipneumoniae Qmp M1-977 TolC (KqTolC), recombinant, C-terminal His6 (Klebsiella quasipneumoniae); test: stopped-flow fluorescence (pre-equilibrium, tryptophan emission); 0.5 µM KqTolC with excess KlebC_(1-254), pseudo-first-order, 25 °C; kapp from single exponential fits, kon from the gradient of kapp against concentration
# [4] = molecular target: TolC of Klebsiella quasipneumoniae Qmp M1-977, endogenous (Klebsiella quasipneumoniae (endogenous in K. quasipneumoniae Qmp M1-977))
# [5] = molecular target: Klebsiella quasipneumoniae Qmp M1-977 TolC (KqTolC), recombinant, C-terminal His6 (Klebsiella quasipneumoniae); test: cryo-EM structure; KqTolC-KlebC_(1-254) mixed in β-OG and transferred into amphipol A8-35 without cross-linking; only KqTolC resolved; 3.4 Å
# [6] = molecular target: Klebsiella quasipneumoniae Qmp M1-977 TolC (KqTolC), recombinant, C-terminal His6 (Klebsiella quasipneumoniae); test: stopped-flow fluorescence (pre-equilibrium, loss of Trp-to-AEDANS FRET); TolC in excess, pseudo-first-order, 25 °C; single exponential fits
# [7] = molecular target: Klebsiella quasipneumoniae Qmp M1-977 TolC (KqTolC), recombinant, C-terminal His6 (Klebsiella quasipneumoniae); test: stopped-flow fluorescence (pre-equilibrium, loss of Trp-to-AEDANS FRET); Q204C^AEDANS KlebC_(1-254) in excess, pseudo-first-order, 25 °C; single exponential fits
# [8] = molecular target: Klebsiella quasipneumoniae Qmp M1-977 TolC (KqTolC), recombinant, C-terminal His6 (Klebsiella quasipneumoniae); test: equilibrium fluorescence (Trp-to-AEDANS FRET within KlebC); 1 µM Q204C^AEDANS KlebC_(1-254) without and with 1 µM KqTolC trimer; excitation 280 nm, FRET signal at 490 nm, 25 °C
substance,measurement,setting,value
KlebC_(1-254) (domain or fragment),koff,[1],5e-05 s⁻¹
same,Kd,[2],35 nM
same,dH,[2],30.6 kcal/mol
same,stoichiometry N (binding sites per TolC trimer),[2],0.9
same,kon,[3],1900 M⁻¹ s⁻¹
KlebC_(51-254) (domain or fragment),growth of K. quasipneumoniae on LB-Agar with 1 mg ml^−1 Rhodamine 6G after serial dilution in 1 or 10 µM KlebC (51-254),[4],4 log
same,Kd,[2],368 nM
same,dH,[2],20.8 kcal/mol
same,stoichiometry N (binding sites per TolC trimer),[2],1.34
"Klebsiella quasipneumoniae Qmp M1-977 TolC (KqTolC), recombinant, C-terminal His6 (natural protein)",stoichiometry N,[5],3
Q204C^AEDANS KlebC_(1-254) (domain or fragment),kon,[6],6700 M⁻¹ s⁻¹
same,kon,[7],2900 M⁻¹ s⁻¹
same,decrease of the Trp-to-AEDANS FRET signal at 490 nm upon addition of equimolar TolC trimer,[8],77%
